± gives the standard error. This sample holds only a part of the variants without activity.
B1: glmS ribozyme (parent)
chain: AUAAAAGCGCCAGAACUACAGAAAUGUAGUUGACGAGGAGGAGGUUUAUCGAAUUUUCGGCGGAUGCCUCCAAA

Experiments:
Details in all cases: with glucosamine-6-phosphate
[1] = variants of: B1; test: self-cleavage kobs at 640 uM GlcN6P; higher = faster cleavage; RNA array
How it was run: (§1)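 Glucosamine-6-phosphate in HEPES/KCl/Mg(OAc)2 buffer, at 40 μM to 10 mM, was flowed over barcoded ribozyme variants transcribed in situ by E. coli RNA polymerase on sequenced MiSeq chips. Tracking was through a hybridised Cy3 probe at 37 °C. kobs, kcat and KM came from exponential decay fits and weighted Michaelis–Menten fits of normalised per-tile medians.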

[2] = variants of: B1; test: self-cleavage kobs at 2500 uM GlcN6P; higher = faster cleavage; RNA array
How it was run: as §1

[3] = variants of: B1; test: self-cleavage kobs at 10000 uM GlcN6P; higher = faster cleavage; RNA array
How it was run: as §1

Variant: U45A C58A C71U
- self-cleavage kobs at 640 uM GlcN6P [1]: 0.000102 ± 2.9e-05 s⁻¹
- self-cleavage kobs at 2500 uM GlcN6P [2]: 0.000293 ± 8.3e-05 s⁻¹

Variant: A6G G32U C61A
- self-cleavage kobs at 640 uM GlcN6P [1]: < 1e-05 s⁻¹
- self-cleavage kobs at 2500 uM GlcN6P [2]: < 1e-05 s⁻¹

Variant: C11G A14U A36U U46A C61G G63A
- self-cleavage kobs at 640 uM GlcN6P [1]: < 1e-05 s⁻¹
- self-cleavage kobs at 2500 uM GlcN6P [2]: < 1e-05 s⁻¹

Variant: G35A U46C G66A
- self-cleavage kobs at 640 uM GlcN6P [1]: < 1e-05 s⁻¹

Variant: G29A G43C A52C C61U
- self-cleavage kobs at 640 uM GlcN6P [1]: < 1e-05 s⁻¹
- self-cleavage kobs at 2500 uM GlcN6P [2]: < 1e-05 s⁻¹

Variant: U31G G41U U47G
- self-cleavage kobs at 640 uM GlcN6P [1]: 7.13e-05 ± 2e-05 s⁻¹
- self-cleavage kobs at 2500 uM GlcN6P [2]: 0.000232 ± 5.7e-05 s⁻¹

Variant: C34U G44A A48U U56A G60A
- self-cleavage kobs at 640 uM GlcN6P [1]: < 1e-05 s⁻¹

Variant: G41U C50A U65A
- self-cleavage kobs at 640 uM GlcN6P [1]: < 1e-05 s⁻¹

Variant: A12G U57A G60U
- self-cleavage kobs at 640 uM GlcN6P [1]: < 1e-05 s⁻¹
- self-cleavage kobs at 2500 uM GlcN6P [2]: < 1e-05 s⁻¹
- self-cleavage kobs at 10000 uM GlcN6P [3]: < 1e-05 s⁻¹

Variant: G9C G43U U55G A64G
- self-cleavage kobs at 640 uM GlcN6P [1]: < 1e-05 s⁻¹
- self-cleavage kobs at 2500 uM GlcN6P [2]: < 1e-05 s⁻¹

Variant: A42G U55G A64G C71G
- self-cleavage kobs at 640 uM GlcN6P [1]: 0.000116 ± 3.7e-05 s⁻¹
- self-cleavage kobs at 2500 uM GlcN6P [2]: 5.98e-05 ± 2e-05 s⁻¹

Variant: C34A G35U A36U
- self-cleavage kobs at 640 uM GlcN6P [1]: < 1e-05 s⁻¹
- self-cleavage kobs at 10000 uM GlcN6P [3]: < 1e-05 s⁻¹

Variant: G9U G35A G44U A53C C71G
- self-cleavage kobs at 640 uM GlcN6P [1]: < 1e-05 s⁻¹
- self-cleavage kobs at 2500 uM GlcN6P [2]: < 1e-05 s⁻¹

Variant: G37U U65A G66C
- self-cleavage kobs at 640 uM GlcN6P [1]: < 1e-05 s⁻¹

Variant: G32C G35A A64C C70A
- self-cleavage kobs at 640 uM GlcN6P [1]: < 1e-05 s⁻¹
- self-cleavage kobs at 2500 uM GlcN6P [2]: < 1e-05 s⁻¹

Variant: U47A U49G
- self-cleavage kobs at 640 uM GlcN6P [1]: 3.82e-05 ± 1.4e-05 s⁻¹
- self-cleavage kobs at 2500 uM GlcN6P [2]: 7.57e-05 ± 1.8e-05 s⁻¹

Variant: A15U G35U A39C
- self-cleavage kobs at 640 uM GlcN6P [1]: < 1e-05 s⁻¹
- self-cleavage kobs at 2500 uM GlcN6P [2]: < 1e-05 s⁻¹

Variant: C16U A53G C70A
- self-cleavage kobs at 640 uM GlcN6P [1]: 0.000224 ± 3.5e-05 s⁻¹
- self-cleavage kobs at 2500 uM GlcN6P [2]: 0.000232 ± 6.5e-05 s⁻¹

Variant: U47G G59A C67G
- self-cleavage kobs at 640 uM GlcN6P [1]: 0.000579 ± 0.00015 s⁻¹

Variant: A15U U45C C50G U69G
- self-cleavage kobs at 640 uM GlcN6P [1]: < 1e-05 s⁻¹
- self-cleavage kobs at 2500 uM GlcN6P [2]: < 1e-05 s⁻¹

Variant: G9A A15U C16A G63C C68U
- self-cleavage kobs at 640 uM GlcN6P [1]: < 1e-05 s⁻¹

Variant: A33C A42U C67A
- self-cleavage kobs at 640 uM GlcN6P [1]: < 1e-05 s⁻¹

Variant: G9C A15C G32U G40C G66C
- self-cleavage kobs at 640 uM GlcN6P [1]: < 1e-05 s⁻¹

Variant: G7U G41C C58A
- self-cleavage kobs at 640 uM GlcN6P [1]: < 1e-05 s⁻¹
- self-cleavage kobs at 2500 uM GlcN6P [2]: < 1e-05 s⁻¹

Variant: A12G G41A G59U
- self-cleavage kobs at 640 uM GlcN6P [1]: < 1e-05 s⁻¹
- self-cleavage kobs at 2500 uM GlcN6P [2]: < 1e-05 s⁻¹

Variant: C16G U46A U49G C67G U69G C71G
- self-cleavage kobs at 640 uM GlcN6P [1]: < 1e-05 s⁻¹

Variant: A33G G51A U55C C68A
- self-cleavage kobs at 640 uM GlcN6P [1]: < 1e-05 s⁻¹

Variant: C16U G32U C34G A53C
- self-cleavage kobs at 640 uM GlcN6P [1]: < 1e-05 s⁻¹
- self-cleavage kobs at 2500 uM GlcN6P [2]: < 1e-05 s⁻¹

Variant: G37A U54C C70U
- self-cleavage kobs at 640 uM GlcN6P [1]: 0.000626 ± 0.00016 s⁻¹
- self-cleavage kobs at 2500 uM GlcN6P [2]: 0.00117 ± 0.00025 s⁻¹

Variant: U47A A48C
- self-cleavage kobs at 640 uM GlcN6P [1]: 0.000145 ± 2.2e-05 s⁻¹
- self-cleavage kobs at 2500 uM GlcN6P [2]: 0.000222 ± 3.6e-05 s⁻¹
- self-cleavage kobs at 10000 uM GlcN6P [3]: 0.000561 ± 0.0001 s⁻¹

Variant: G40A U57A C71U
- self-cleavage kobs at 640 uM GlcN6P [1]: 6.1e-05 ± 2.3e-05 s⁻¹
- self-cleavage kobs at 2500 uM GlcN6P [2]: 0.000149 ± 3.4e-05 s⁻¹

Variant: G35A A36C C61G A64G
- self-cleavage kobs at 640 uM GlcN6P [1]: < 1e-05 s⁻¹

Variant: G32C G41A U46G C71U
- self-cleavage kobs at 640 uM GlcN6P [1]: < 1e-05 s⁻¹
- self-cleavage kobs at 2500 uM GlcN6P [2]: < 1e-05 s⁻¹

Variant: C10U G35C G60A
- self-cleavage kobs at 640 uM GlcN6P [1]: < 1e-05 s⁻¹
- self-cleavage kobs at 2500 uM GlcN6P [2]: < 1e-05 s⁻¹

Variant: A39G G44A C58A
- self-cleavage kobs at 640 uM GlcN6P [1]: < 1e-05 s⁻¹

Variant: G41A A42G U45G
- self-cleavage kobs at 640 uM GlcN6P [1]: 0.0066 ± 0.002 s⁻¹

Variant: A6U U45A C50G U65G U69G
- self-cleavage kobs at 640 uM GlcN6P [1]: < 1e-05 s⁻¹

Variant: C19A A48U
- self-cleavage kobs at 640 uM GlcN6P [1]: 6.44e-05 ± 2.3e-05 s⁻¹

Variant: U56C G66C
- self-cleavage kobs at 640 uM GlcN6P [1]: 6.26e-05 ± 2.2e-05 s⁻¹
- self-cleavage kobs at 2500 uM GlcN6P [2]: 8.66e-05 ± 2.4e-05 s⁻¹

Variant: A15U C50A C68U
- self-cleavage kobs at 640 uM GlcN6P [1]: 7.76e-05 ± 2.5e-05 s⁻¹

Variant: G7C C16U G32C G43A C50U
- self-cleavage kobs at 640 uM GlcN6P [1]: < 1e-05 s⁻¹

Variant: C11U A33U A53C
- self-cleavage kobs at 640 uM GlcN6P [1]: < 1e-05 s⁻¹

Variant: U49C C61A
- self-cleavage kobs at 640 uM GlcN6P [1]: < 1e-05 s⁻¹

Variant: U30C U47G
- self-cleavage kobs at 640 uM GlcN6P [1]: 6.62e-05 ± 2.2e-05 s⁻¹
- self-cleavage kobs at 2500 uM GlcN6P [2]: 3.09e-05 ± 1.1e-05 s⁻¹
- self-cleavage kobs at 10000 uM GlcN6P [3]: 2.83e-05 ± 6e-06 s⁻¹

Variant: A14C C61U C68G
- self-cleavage kobs at 640 uM GlcN6P [1]: 0.0001 ± 3.3e-05 s⁻¹

Variant: A15U A28C A33U
- self-cleavage kobs at 640 uM GlcN6P [1]: < 1e-05 s⁻¹

Variant: G7C G13A G43C G51C A52G C58A G66C C68A
- self-cleavage kobs at 640 uM GlcN6P [1]: < 1e-05 s⁻¹

Variant: G29C U56A C71A
- self-cleavage kobs at 640 uM GlcN6P [1]: 4.27e-05 ± 1.8e-05 s⁻¹

Variant: C50U C67A
- self-cleavage kobs at 640 uM GlcN6P [1]: 6.32e-05 ± 2.1e-05 s⁻¹

Variant: G32A G43A U57G
- self-cleavage kobs at 640 uM GlcN6P [1]: < 1e-05 s⁻¹

Variant: A39C U45A C68G
- self-cleavage kobs at 640 uM GlcN6P [1]: < 1e-05 s⁻¹

Variant: C10A G43C A53U
- self-cleavage kobs at 640 uM GlcN6P [1]: < 1e-05 s⁻¹
- self-cleavage kobs at 2500 uM GlcN6P [2]: < 1e-05 s⁻¹

Variant: A36C G44U C61U C67U
- self-cleavage kobs at 640 uM GlcN6P [1]: < 1e-05 s⁻¹
- self-cleavage kobs at 2500 uM GlcN6P [2]: < 1e-05 s⁻¹

Variant: G44A U47G
- self-cleavage kobs at 640 uM GlcN6P [1]: 5.51e-05 ± 2.3e-05 s⁻¹
- self-cleavage kobs at 2500 uM GlcN6P [2]: 0.00011 ± 3.2e-05 s⁻¹
- self-cleavage kobs at 10000 uM GlcN6P [3]: 0.000111 ± 2.2e-05 s⁻¹

Variant: G7A C8A G9A G62A
- self-cleavage kobs at 640 uM GlcN6P [1]: < 1e-05 s⁻¹
- self-cleavage kobs at 10000 uM GlcN6P [3]: < 1e-05 s⁻¹

Variant: C10U G21U G62A
- self-cleavage kobs at 640 uM GlcN6P [1]: < 1e-05 s⁻¹
- self-cleavage kobs at 10000 uM GlcN6P [3]: < 1e-05 s⁻¹

Variant: C34A U54A A64C
- self-cleavage kobs at 640 uM GlcN6P [1]: < 1e-05 s⁻¹
- self-cleavage kobs at 2500 uM GlcN6P [2]: < 1e-05 s⁻¹

Variant: A15G C16A C58A A64U C70U
- self-cleavage kobs at 640 uM GlcN6P [1]: 8e-05 ± 1.9e-05 s⁻¹

Variant: C8U G40C C71U
- self-cleavage kobs at 640 uM GlcN6P [1]: < 1e-05 s⁻¹
- self-cleavage kobs at 2500 uM GlcN6P [2]: < 1e-05 s⁻¹

Variant: A6G G43A C68A
- self-cleavage kobs at 640 uM GlcN6P [1]: < 1e-05 s⁻¹

Variant: G35C G40A U46G G66A
- self-cleavage kobs at 640 uM GlcN6P [1]: < 1e-05 s⁻¹
- self-cleavage kobs at 2500 uM GlcN6P [2]: < 1e-05 s⁻¹

Variant: C16U A36C G38A
- self-cleavage kobs at 640 uM GlcN6P [1]: < 1e-05 s⁻¹
- self-cleavage kobs at 10000 uM GlcN6P [3]: < 1e-05 s⁻¹

Variant: A12U U65C C70U
- self-cleavage kobs at 640 uM GlcN6P [1]: 0.000322 ± 8.6e-05 s⁻¹

Variant: A42U U69C C70A
- self-cleavage kobs at 640 uM GlcN6P [1]: 0.0004 ± 0.00011 s⁻¹
- self-cleavage kobs at 2500 uM GlcN6P [2]: 0.000308 ± 9.7e-05 s⁻¹

Variant: A14G A42C G63U
- self-cleavage kobs at 640 uM GlcN6P [1]: < 1e-05 s⁻¹

Variant: U30G U55G C68U
- self-cleavage kobs at 640 uM GlcN6P [1]: 0.000548 ± 0.00014 s⁻¹
- self-cleavage kobs at 2500 uM GlcN6P [2]: 7.82e-05 ± 2.1e-05 s⁻¹
